Measured values: patent US20030108554A1 (published 2003)

Assays:
GIP130b = target: T1, GIP130b (human, UniProt Q4L180 1-1128); test: yeast two-hybrid and three-hybrid (conclusion)
T1 construct: Full length; tested as GAL4 domain fusion in yeast two-hybrid
T1 sequence: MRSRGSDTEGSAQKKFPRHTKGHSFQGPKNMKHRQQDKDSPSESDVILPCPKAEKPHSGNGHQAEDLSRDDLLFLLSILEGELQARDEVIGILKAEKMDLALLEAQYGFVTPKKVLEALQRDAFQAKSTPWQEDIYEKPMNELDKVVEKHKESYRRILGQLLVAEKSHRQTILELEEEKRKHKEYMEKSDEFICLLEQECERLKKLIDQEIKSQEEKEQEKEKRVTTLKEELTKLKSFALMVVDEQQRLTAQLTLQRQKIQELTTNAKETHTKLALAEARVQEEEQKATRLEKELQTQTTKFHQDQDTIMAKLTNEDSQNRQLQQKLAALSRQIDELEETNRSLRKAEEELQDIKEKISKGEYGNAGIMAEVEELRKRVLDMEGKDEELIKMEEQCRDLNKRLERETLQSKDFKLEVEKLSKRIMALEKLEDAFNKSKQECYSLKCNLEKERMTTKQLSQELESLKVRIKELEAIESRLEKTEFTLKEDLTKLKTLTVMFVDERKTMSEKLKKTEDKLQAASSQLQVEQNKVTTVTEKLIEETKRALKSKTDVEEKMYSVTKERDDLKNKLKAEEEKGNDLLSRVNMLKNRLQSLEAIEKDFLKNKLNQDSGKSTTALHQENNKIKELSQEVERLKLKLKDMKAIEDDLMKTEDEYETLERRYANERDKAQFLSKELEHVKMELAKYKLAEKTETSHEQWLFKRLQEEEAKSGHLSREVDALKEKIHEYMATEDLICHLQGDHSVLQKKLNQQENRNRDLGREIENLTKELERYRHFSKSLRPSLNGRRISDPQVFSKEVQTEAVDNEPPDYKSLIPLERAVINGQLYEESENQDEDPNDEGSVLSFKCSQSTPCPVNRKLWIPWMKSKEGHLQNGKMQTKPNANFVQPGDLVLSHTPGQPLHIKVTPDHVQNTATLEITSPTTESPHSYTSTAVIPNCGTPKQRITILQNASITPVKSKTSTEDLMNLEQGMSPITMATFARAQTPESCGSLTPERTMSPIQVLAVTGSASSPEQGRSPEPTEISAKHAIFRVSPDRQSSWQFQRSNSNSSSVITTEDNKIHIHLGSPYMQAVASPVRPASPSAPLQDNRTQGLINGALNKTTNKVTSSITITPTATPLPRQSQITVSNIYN
Method: Accordingly, we have observed with a yeast three-hybrid system that GPBP expression efficiently impairs both I-20 and GIP90 aggregation, and that I-20 and GIP90 efficiently impair GPBP aggregation.
(§1) Deletion mutants were obtained using specific primers and PCR, followed by cloning of the resulting cDNAs in the pGBT9 and pGAD424 vectors. The assays were performed in SFY526 or HF7c Saccharomyces cerevisiae strains, with pGBT9 as GAL4 binding domain vector and pGAD424 as GAL4 activation domain vector, by the lift colony assay procedure. Briefly, the yeast cells were co-transformed with constructs of both binding domain and activation domain vectors, and the co-transformants were selected in medium deficient in both tryptophan and leucine. After five days of incubation at 30° C. the colonies were tested for the expression of β-galactosidase with X-Gal substrate (0.75 mg/ml). […] When the assays were performed with the HF7c strain, the interactions were assessed by the lift colony assay procedure and by growth in medium deficient in histidine, tryptophan and leucine. For yeast three-hybrid system, we used the pBRIDGE vector, which allows the conditional expression of a third protein apart from the usual GAL4 binding and activation domain-fusion proteins of the two-hybrid system. In this case, the expression of GPBP or I-20 or GIP90 was driven by Met25 promoter, active in absence of methionine. In these experiments, the transformed SFY526 cells were plated in medium deficient in tryptophan, leucine and methionine, and subjected to the colony lift assay after five days at 30° C. In the case of the strain HF7c the colonies grown in the cited plates were streaked on medium with the additional deficiency of histidine.

[1] = target: T2, GIP90 (GPBP interacting protein 90 kDa) (human, UniProt Q4L180 1-749, limits assumed); test: yeast two-hybrid, β-galactosidase colony lift
T2 construct: Full length; tested as GAL4 domain fusion in yeast two-hybrid/three-hybrid; fusion parts are not written as pieces
T2 sequence: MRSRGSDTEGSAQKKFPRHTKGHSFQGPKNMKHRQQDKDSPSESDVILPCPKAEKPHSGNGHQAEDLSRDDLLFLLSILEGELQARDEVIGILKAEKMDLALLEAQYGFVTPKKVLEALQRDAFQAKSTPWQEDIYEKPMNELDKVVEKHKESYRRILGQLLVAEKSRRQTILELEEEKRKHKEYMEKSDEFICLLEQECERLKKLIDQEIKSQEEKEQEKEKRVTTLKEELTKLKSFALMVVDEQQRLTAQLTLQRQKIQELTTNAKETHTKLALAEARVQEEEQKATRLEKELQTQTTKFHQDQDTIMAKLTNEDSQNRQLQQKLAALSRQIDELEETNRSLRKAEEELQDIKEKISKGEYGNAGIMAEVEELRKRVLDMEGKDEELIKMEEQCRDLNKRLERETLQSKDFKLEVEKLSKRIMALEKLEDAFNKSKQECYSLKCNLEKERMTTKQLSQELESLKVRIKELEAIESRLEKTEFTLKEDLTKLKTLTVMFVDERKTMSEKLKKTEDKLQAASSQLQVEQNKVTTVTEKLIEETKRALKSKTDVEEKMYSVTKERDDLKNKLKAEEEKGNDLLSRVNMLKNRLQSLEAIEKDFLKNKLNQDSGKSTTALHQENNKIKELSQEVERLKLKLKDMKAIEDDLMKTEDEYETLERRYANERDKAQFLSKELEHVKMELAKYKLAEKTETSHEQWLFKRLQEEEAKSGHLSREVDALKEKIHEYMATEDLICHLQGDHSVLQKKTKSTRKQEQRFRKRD
Method: as §1, with “In the case of the strain HF7c the colonies grown in the cited plates were streaked on medium with the additional deficiency of histidine.” left out

- binding result (GIP130b): binds
- binding result [1]: binds
B1: Goodpasture antigen binding protein (GPBP) (enzyme, UniProt Q9Y5P4 1-624, looked up)
chain: MSDNQSWNSSGSEEDPETESGPPVERCGVLSKWTNYIHGWQDRWVVLKNNALSYYKSEDETEYGCRGSICLSKAVITPHDFDECRFDISVNDSVWYLRAQDPDHRQQWIDAIEQHKTESGYGSESSLRRHGSMVSLVSGASGYSATSTSSFKKGHSLREKLAEMETFRDILCRQVDTLQKYFDACADAVSKDELQRDKVVEDDEDDFPTTRSDGDFLHSTNGNKEKLFPHVTPKGINGIDFKGEAITFKATTAGILATLSHCIELMVKREDSWQKRLDKETEKKRRTEEAYKNAMTELKKKSHFGGPDYEEGPNSLINEEEFFDAVEAALDRQDKIEEQSQSEKVRLHWPTSLPSGDAFSSVGTHRFVQKPYSRSSSMSSIDLVSASDDVHRFSSQVEEMVQNHMTYSLQDVGGDANWQLVVEEGEMKVYRREVEENGIVLDPLKATHAVKGVTGHEVCNYFWNVDVRNDWETTIENFHVVETLADNAIIIYQTHKRVWPASQRDVLYLSVIRKIPALTENDPETWIVCNFSVDHDSAPLNNRCVRAKINVAMICQTLVSPPEGNQEISRDNILCKITYVANVNPGGWAPASVLRAVAKREYPKFLKRFTSYVQEKTAGKPILF
notes: Protein kinase; Fusion parts are not written as pieces
